Results on one protein are retold here after PMC4027190.

This data set is described as follows: western blot (and ELISA for N38S) of culture media. The settings on record: glycan lost; control: wild type.

B1: matrix metalloproteinase-9 (MMP-9): mS38 (protein)
parent chain: MSLWQPLVLVLLVLGCCFAAPRQRQSTLVLFPGDLRTNLTDRQLAEEYLYRYGYTRVAEMRGESKSLGPALLLLQKQLSLPETGELDSATLKAMRTPRCGVPDLGRFQTFEGDLKWHHHNITYWIQNYSEDLPRAVIDDAFARAFALWSAVTPLTFTRVYSRDADIVIQFGVAEHGDGYPFDGKDGLLAHAFPPGPGIQGDAHFDDDELWSLGKGVVVPTRFGNADGAACHFPFIFEGRSYSACTTDGRSDGLPWCSTTANYDTDDRFGFCPSERLYTQDGNADGKPCQFPFIFQGQSYSACTTDGRSDGYRWCATTANYDRDKLFGFCPTRADSTVMGGNSAGELCVFPFTFLGKEYSTCTSEGRGDGRLWCATTSNFDSDKKWGFCPDQGYSLFLVAAHEFGHALGLDHSSVPEALMYPMYRFTEGPPLHKDDVNGIRHLYGPRPEPEPRPPTTTTPQPTAPPTVCPTGPPTVHPSERPTAGPTGPPSAGPTGPPTAGPSTATTVPLSPVDDACNVNIFDAIAEIGNQLYLFKDGKYWRFSEGRGSRPQGPFLIADKWPALPRKLDSVFEERLSKKLFFFSGRQVWVYTGASVLGPRRLDKLGLGADVAQVTGALRSGRGKMLLFSGRRLWRFDVKAQMVDPRSASEVDRMFPGVPLDTHDVFQYREKAYFCQDRFYWRVSSRSELNQVDQVGYVTYDILQCPED
Turning to B1, the expression_or_secretion result is given as “no change”.
